Test results published in PMC7526519 (2020).

How the values were obtained:
[1] = molecular target: SARS-CoV-2 receptor binding domain (RBD), His-tagged (SARS-CoV-2, UniProt P0DTC2 319-541); test: SPR
[2] = molecular target: SARS-CoV receptor binding domain (RBD), His-tagged (SARS-CoV, UniProt P59594 306-527); test: SPR

Row | Binder | Kd [1] [µM] | Kd [2] [µM]
1 | dog ACE2 ectodomain fused with mouse Fc (Fc fusion) QSTEDLVKTFLEKFNYEAEELSYQSSLASWNYNINITDENVQKMNNAGAKWSAFYEEQSKLAKTYPLEEIQDSTVKRQLRALQHSGSSVLSADKNQRLNTILNSMSTVYSTGKACNPSNPQECLLLEPGLDDIMENSKDYNERLWAWEGWRSEVGKQLRPLYEEYVALKNEMARANNYEDYGDYWRGDYEEEWENGYNYSRNQLIDDVELTFTQIMPLYQHLHAYVRTKLMDTYPSYISPTGCLPAHLLGDMWGRFWTNLYPLTVPFGQKPNIDVTNAMVNQSWDARKIFKEAEKFFVSVGLPNMTQEFWGNSMLTEPSDSRKVVCHPTAWDLGKGDFRIKMCTKVTMDDFLTAHHEMGHIQYDMAYAAQPFLLRNGANEGFHEAVGEIMSLSAATPNHLKNIGLLPPSFFEDSETEINFLLKQALTIVGTLPFTYMLEKWRWMVFKGEIPKDQWMKTWWEMKRNIVGVVEPVPHDETYCDPASLFHVANDYSFIRYYTRTIYQFQFQEALCQIAKHEGPLHKCDISNSSEAGQKLLEMLKLGKSKPWTYALEIVVGAKNMDVRPLLNYFEPLFTWLKEQNRNSFVGWNTDWSPYADQSIKVRISLKSALGEKAYEWNNNEMYLFRSSIAYAMRQYFSEVKNQTIPFVEDNVWVSDLKPRISFNFSVTSPGNVSDIIPRTEVEEAIRMYRSRINDVFRLDDNSLEFLGIQPTPGPPYEPPVT | 0.0989 | 0.02
2 | wild Bactrian camel ACE2 ectodomain fused with mouse Fc (Fc fusion) QSTTEELAKTFLEEFNHEAEDLSYQSSLASWNYNTNITDENVQKMNDARAKWSTFYEEKSKTAKTYPLEEIQNVTLKRQLQALQQSGASALSADKSKRLTTVLSTMSTIYSSGEVCDPNNPQECLVLEPGLDDIMENSKDYNQRLWAWEGWRAEVGKQLRPLYEEYVVLKNEMARANNYEDYGDYWRGDYEVMWAGDYDYSRDQLMGDVEHTFAEIKPLYEHLHAYVRAKLMDVYPSHISPTGCLPAHLLGDMWGRFWTNLYSLTVPFGQKPNIDVTEAMENQSWDAKRIFKEAEKFFVSIGLPNMTQGFWDNSMLTEPGDGRKVVCHPTAWDLGKGDFRIKMCTKVTMDDFLTAHHEMGHIQYDMAYAIQPFLLRNGANEGFHEAVGEIMSLSAATPHYLKALGLLPADFYEDSETEINFLLKQALTIVGTLPFTYMLEKWRWMVFKGEIPKEQWMQKWWEMKREIVGVVEPLPHDETYCDPACLFHVAEDYSFIRYYTRTIYQFQFHEALCQIAKHEGPLYKCDISNSTEAGQKLLQMLSLGKSEPWTLALEGLVGVKTMDVKPLLNYFEPLLTWLKDQNRNSFVGWSTDWTPYTDQSIKVRISLKSALGDKAYEWNDNEMYLFQSSLAYAMRKYFLKVQNQTILFGVEDVWVSDLKPRISFSFFVTSPKNVSDIIPRTEVEEAIRMSRSRINDAFRLDDNSLEFLGIQPTLGPPYEPPVT | 0.272 | 0.0691
3 | goat ACE2 ectodomain fused with mouse Fc (Fc fusion) QSTTEEQAKTFLEKFNHEAEDLSYQSSLASWNYNTNITDENVQKMNEARAKWSAFYEEQSRMARTYSLEEIQNLTLKRQLKALQHSGTSVLSAEKSKRLNMILNKMSTIYSTGKVLDPNTQECLALEPGLDDIMENSRDYNRRLWAWEGWRAEVGKQLRPLYEEYVVLENEMARANNYEDYGDYWRGDYEVTGAGDYDYSRDQLMKDVERTFAEIKPLYEQLHAYVRAKLMNTYPSYISPTGCLPAHLLGDMWGRFWTNLYSLTVPFEHKPSIDVTEKMKNQSWDAERIFKEAEKFFVSIGLPYMTQGFWNNSMLTEPGDGRKVVCHPTAWDLGKGDFRIKMCTKVTMDDFLTAHHEMGHIQYDMAYATQPYLLRNGANEGFHEAVGEIMSLSAATPHYLKALGLLAPDFYEDNETEINFLLKQALTIVGTLPFTYMLEKWRWMVFKGEIPKQQWMEKWWEMKREIVGVVEPLPHDETYCDPACLFHVAEDYSFIRYYTRTIYQFQFHEALCKTAKHEGALFKCDISNSTEAGQRLLQMLRLGKSEPWTLALENIVGIKTMDVKPLLNYFEPLFTWLKEQNRNSFVGWSTEWTPYSDQSIKVRISLKSALGENAYEWNDNEMYLFRSSVAYAMRKYFLEDRNETIPFGEENVWVSDKKPRISFKFFVTSPNNVSDIIPRTEVENAIRLCRDRINDAFQLDDNSLEFLGIQPTLRPPYEPPVT | 0.157 | 0.308
4 | sheep ACE2 ectodomain fused with mouse Fc (Fc fusion) QSTTEGQAKTFLEKFNHEAEDLSYQSSLASWNYNTNITDENVQKMNEARAKWSAFYEEQSRMARTYSLEEIQNLTLKRQLKALQHSGTSVLSAEKSKRLNTILNKMSTIYSTGKVLDPNTQECLALEPGLDDIMENSRDYNRRLWAWEGWRAEVGKQLRPLYEEYVVLENEMARANNYEDYGDYWRGDYEVTGAGDYDYSRDQLMKDVERTFEEIKPLYEQLHAYVRAKLMDTYPSYISPTGCLPAHLLGDMWGRFWTNLYSLTVPFEHKPSIDVTEKMKNQSWDAERIFKEAEKFFVSIGLPYMTQGFWDNSMLTEPGDGRKVVCHPTAWDLGKGDFRIKMCTKVTMDDFLTAHHEMGHIQYDMAYATQPYLLRNGANEGFHEAVGEIMSLSAATPHYLKALGLLAPDFYEDNETEINFLLKQALTIVGTLPFTYMLEKWRWMVFKGEIPKQQWMEKWWEMKREIVGVVEPLPHDETYCDPACLFHVAEDYSFIRYYTRTIYQFQFHEALCKTAKHEGALFKCDISNSTEAGQRLLQMLRLGKSEPWTLALENIVGIKTMDVKPLLNYFEPLFTWLKEQNRNSFVGWSTEWTPYSDQSIKVRISLKSALGENAYEWNDNEMYLFRSSVAYAMRKYFLKERNETIPFGEENVWVSDKKPRISFKFFVTSPNNVSDIIPRTEVENAIRLCRDRINDAFQLDDNSLEFLGIQPTLRPPYEPPVT | 0.137 | 0.157
5 | fulvous fruit bat ACE2 ectodomain fused with mouse Fc (Fc fusion) QSTPEELAKTFLEKFNTEAEDLFYQSSLASWDFNTNIIDENVQKMSKARATWSAFYDEQSKLAKTYQLDEIQDPELKLQLRILQQSGSSTLSADKTKRLNDILNTMSTIYSTGKICQPNNSQECLLLEPGLDDIMENSKDYSQRLWAWESWRSEVGKQLRPYYEEYVVLKNEMARGENYEDYGDYWRGDYETEGINGSAYTRDQLIEDVDRIFTEIKPLYEQLHAYVRTKLMDAYPSHISPTGCLPAHLLGDMWGRFWINLYPLTVPFEQKPNIDVTDEMVNQNWNAKRIFKEAEKFFVSLGLPNMTETFWEKSVLTEPDNDQKVACHPTAWDLGKGDFRIIMCTKVKMEDFLTAHHEMGHIQYYMAYATQPYLLRDGANEGFHEAVGEVISLSVATPNHLKNMGLLPPDFYEDNETEINFLLKQALNVVGTLPFTYMLEKWRWMVFKGEIPKEQWMEKWWEMKRELVGVVEPLPHDETYCDPASLFHVANDYSFIRYYTRTIFEFQFLEALCQIAQHEGPLYKCDIANSTEAGKKLHQMLSLGKSKPWTLALESIAGTKNMDVRPLLNYFEPLFTWLKEKNRNSFVGWSTDWSPYSGQSIKVRISLKAALGEKAYEWNDNEMYLFKSSIAYSLREYFLKVKNLTIPFGEEDVWVSDLKPRISFNFFVTSPQNVSEFIPRTEVEGAIRMSRSRINDAFRLDDDTLEFLGIEPTLGTPYQPPVT | 1.13 | 0.412
6 | alpaca ACE2 ectodomain fused with mouse Fc (Fc fusion) QSTTEELAKTFLKEFNHEAEDRSYQSSLASWNYNTNITDENVQKMNDARAKWSTFYEEKSKAAKIYPLEEIENVTLKRQLQALQQSGASALSADKSKRLTTILNTMSSIYSSGEVCDPNNPQECLVLEPGLDDIMENSKDYNQRLWAWEGWRAEVGKQLRPLYEEYVVLKNEMARANNYEDYGDYWRGDYEVMWAGDYDYSRDQLMGDVEHTFAEIKPLYEHLHAYVRAKLMDAYPSRISPTGCLPAHLLGDMWGRFWTNLYSLTVPFGQKPNIDVTEAMENQSWDAKRIFKEAEKFFVSIGLPNMTQGFWDNSMLTEPGDGRKVVCHPTAWDLGKGDFRIKMCTKVTMDDFLTAHHEMGHIQYDMAYAIQPFLLRNGANEGFHEAVGEIMSLSAATPHYLKALGLLPADFYEDSETEINFLLKQALTIVGTLPFTYMLEKWRWMVFKGEIPKEQWMQKWWEMKREIVGVVEPLPHDETYCDPACLFHVAEDYSFIRYYTRTIYQFQFHEALCQIAKHEGPLYKCDISNSTEAGQKLLQMLSLGKSEPWTLALEALVGVKTMDVKPLLNYFEPLLTWLKDQNRNSFVGWSTDWTPYTDQSIKVRISLKSALGDKAYEWNDNEMYLFRSSLAYAMRNYFLTVQKQTILFGVEDVWVSDLKPRISFSFFVTSPKNVSDIIPRTEVEKAIRMSRSRINDAFRLDDNSLEFLGIQPTLGPPYEPP |  | 0.0549
7 | cat ACE2 ectodomain fused with mouse Fc (Fc fusion) QSTTEELAKTFLEKFNHEAEELSYQSSLASWNYNTNITDENVQKMNEAGAKWSAFYEEQSKLAKTYPLAEIHNTTVKRQLQALQQSGSSVLSADKSQRLNTILNAMSTIYSTGKACNPNNPQECLLLEPGLDDIMENSKDYNERLWAWEGWRAEVGKQLRPLYEEYVALKNEMARANNYEDYGDYWRGDYEEEWTDGYNYSRSQLIKDVEHTFTQIKPLYQHLHAYVRAKLMDTYPSRISPTGCLPAHLLGDMWGRFWTNLYPLTVPFGQKPNIDVTDAMVNQSWDARRIFKEAEKFFVSVGLPNMTQGFWENSMLTEPGDSRKVVCHPTAWDLGKGDFRIKMCTKVTMDDFLTAHHEMGHIQYDMAYAVQPFLLRNGANEGFHEAVGEIMSLSAATPNHLKTIGLLSPGFSEDSETEINFLLKQALTIVGTLPFTYMLEKWRWMVFKGEIPKEQWMQKWWEMKREIVGVVEPVPHDETYCDPASLFHVANDYSFIRYYTRTIYQFQFQEALCRIAKHEGPLHKCDISNSSEAGKKLLQMLTLGKSKPWTLALEHVVGEKKMNVTPLLKYFEPLFTWLKEQNRNSFVGWNTDWRPYADQSIKVRISLKSALGDEAYEWNDNEMYLFRSSVAYAMREYFSKVKNQTIPFVEDNVWVSNLKPRISFNFFVTASKNVSDVIPRSEVEEAIRMSRSRINDAFRLDDNSLEFLGIQPTLSPPYQPPVT | 0.0857 | 0.0699
8 | horse ACE2 ectodomain fused with mouse Fc (Fc fusion) QSTTEDLAKTFLEKFNSEAEELSHQSSLASWSYNTNITDENVQKMNEAGARWSAFYEEQCKLAKTYPLEEIQNLTVKRQLQALQQSGSSVLSADKSKLNEILNTMSTIYSTGKVCNPSNPQECLLLEPGLDAIMENSKDYNQRLWAWEGWRSEVGKQLRPLYEEYVVLKNEMARANNYEDYGDYWRGDYEAEGPSGYDYSRDQLIEDVERTFAEIKPLYEHLHAYVRAKLMDTYPSHINPTGCLPAHLLGDMWGRFWTNLYSLTVPFGQKPNIDVTDAMVDQSWDAKRIFEEAEKFFVSVGLPNMTQGFWENSMLTEPGDGRKVVCHPTAWDLGKGDFRIKMCTKVTMDDFLTAHHEMGHIQYDMAYAVQPYLLRNGANEGFHEAVGEIMSLSAATPNHLKAIGLLPPDFYEDSETEINFLLKQALTIVGTLPFTYMLEKWRWMVFKGEIPKEEWMKKWWEMKREIVGVVEPVPHDETYCDPAALFHVANDYSFIRYYTRTIYQFQFQEALCQTAKHEGPLHKCDISNSTEAGQKLLQMLSLGKSEPWTLALERIVGVKNMDVRPLLNYFEPLFTWLKDQNKNSFVGWSTNWSPYADQSIKVRISLKSALGEKSYEWNDNEMYLFQSSVAYAMRVYFLKAKNQTILFGEEDVWVSDLKPRISFNFFVTSPKNASDIIPRTDVEEAIRMSRSRINDAFRLDDNTLEFLGIQPTLGPPYQPPVT | 0.133 | 0.141
